The data set relates to Escherichia coli TOP10. Briefly: shrunken log2 fold change of peptide-encoding DNA abundance (4.5 h post-induction vs induction); higher = less antimicrobial activity (less host growth inhibition). The settings on record: time post-induction: 4.5 h; library: site-saturation at positions 5, 18, 19, 20.
As for RRIRQRPPRLPRPRPRPDAHPRP, the “shrunken log2 fold change” value is -0.0825.

RRIRMRPPRLPRPRPRPPTWPRP: the “shrunken log2 fold change” value was 0.627. The result for RRIRERPPRLPRPRPRPVVKPRP reads -0.413. RRIRTRPPRLPRPRPRPHQCPRP: the “shrunken log2 fold change” value stood at 0.021. With RRIRDRPPRLPRPRPRPRIEPRP, the “shrunken log2 fold change” value was found to be 0.119. For RRIRHRPPRLPRPRPRPVHPPRP, the “shrunken log2 fold change” value was -0.131.

With RRIRYRPPRLPRPRPRPYVAPRP, the “shrunken log2 fold change” value was -0.206. For RRIRFRPPRLPRPRPRPKRKPRP, the “shrunken log2 fold change” value amounted to 0.425. Regarding RRIRARPPRLPRPRPRPASPPRP, the “shrunken log2 fold change” value was 0.499. Turning to RRIRGRPPRLPRPRPRPNDRPRP, the “shrunken log2 fold change” value amounted to 0.288. As for RRIRRRPPRLPRPRPRPCIVPRP, the “shrunken log2 fold change” value is -0.183. Turning to RRIRCRPPRLPRPRPRPAYAPRP, the “shrunken log2 fold change” value was 0.00565. In the case of RRIRPRPPRLPRPRPRPCKQPRP it was -0.0806. With RRIRMRPPRLPRPRPRPRRFPRP, the “shrunken log2 fold change” value came out at 0.339.

Turning to RRIRWRPPRLPRPRPRPVHTPRP, the “shrunken log2 fold change” value came out at 0.627.

In the case of RRIRNRPPRLPRPRPRPKRLPRP, the “shrunken log2 fold change” value was -0.0121. Turning to RRIRLRPPRLPRPRPRPTNKPRP, the “shrunken log2 fold change” value was -0.264. Consider RRIRVRPPRLPRPRPRPPSLPRP, for which the “shrunken log2 fold change” value is 1.99. RRIRGRPPRLPRPRPRPHMNPRP: the “shrunken log2 fold change” value turned out to be 0.298.

For RRIRNRPPRLPRPRPRPFFRPRP, the “shrunken log2 fold change” value is -0.378. With RRIRKRPPRLPRPRPRPFTSPRP, the “shrunken log2 fold change” value was 0.093. In the case of RRIRIRPPRLPRPRPRPPDSPRP it was -0.0582; in that of RRIRIRPPRLPRPRPRPLWTPRP, -0.339; in that of RRIRFRPPRLPRPRPRPIILPRP, -1.74. For the sequence RRIRVRPPRLPRPRPRPHAYPRP, the “shrunken log2 fold change” value is -0.473. Take RRIRHRPPRLPRPRPRPAVPPRP: the “shrunken log2 fold change” value came to 0.0133. Regarding RRIRTRPPRLPRPRPRPLMKPRP, the “shrunken log2 fold change” value was -0.26. In the case of RRIRNRPPRLPRPRPRPVYLPRP, the “shrunken log2 fold change” value is -0.216. Take RRIRPRPPRLPRPRPRPEMPPRP: the “shrunken log2 fold change” value turned out to be 0.762. RRIRARPPRLPRPRPRPEKNPRP: the “shrunken log2 fold change” value is 0.538. For RRIRPRPPRLPRPRPRPSHVPRP, the “shrunken log2 fold change” value was -0.544.

As for RRIRERPPRLPRPRPRPRIMPRP, the “shrunken log2 fold change” value is -0.712. Consider RRIRDRPPRLPRPRPRPMKNPRP, for which the “shrunken log2 fold change” value is -0.0366. In the case of RRIRPRPPRLPRPRPRPYLTPRP it was -0.689; in that of RRIRQRPPRLPRPRPRPPTEPRP, -0.153; in that of RRIRMRPPRLPRPRPRPFDMPRP, -0.192. In the case of RRIRYRPPRLPRPRPRPQGGPRP it was 0.0299; in that of RRIRWRPPRLPRPRPRPDTQPRP, -0.0933; in that of RRIRYRPPRLPRPRPRPYCWPRP, -1.07. For the sequence RRIRKRPPRLPRPRPRPIATPRP, the “shrunken log2 fold change” value was -0.0616.

As to RRIRTRPPRLPRPRPRPWFDPRP, the “shrunken log2 fold change” value was -0.247. Turning to RRIRERPPRLPRPRPRPFRPPRP, the “shrunken log2 fold change” value was -0.179. For the sequence RRIRPRPPRLPRPRPRPRHMPRP, the “shrunken log2 fold change” value was 0.116. For RRIRARPPRLPRPRPRPNFIPRP, the “shrunken log2 fold change” value was -0.521.

Take RRIRHRPPRLPRPRPRPMHKPRP: the “shrunken log2 fold change” value was found to be 0.227. In the case of RRIRHRPPRLPRPRPRPKTMPRP it was -0.0912; in that of RRIRLRPPRLPRPRPRPFQDPRP, 0.000192.

As to RRIRCRPPRLPRPRPRPRAKPRP, the “shrunken log2 fold change” value worked out at 0.26.

For RRIRERPPRLPRPRPRPQRRPRP, the “shrunken log2 fold change” value was -0.0022. In the case of RRIRDRPPRLPRPRPRPTVSPRP, the “shrunken log2 fold change” value worked out at 0.853.

On to RRIRHRPPRLPRPRPRPHHSPRP, for which the “shrunken log2 fold change” value was -0.147. For RRIRKRPPRLPRPRPRPILGPRP, the “shrunken log2 fold change” value amounted to 0.00783. RRIRNRPPRLPRPRPRPHKMPRP: the “shrunken log2 fold change” value is -0.634. Take RRIRMRPPRLPRPRPRPGGLPRP: the “shrunken log2 fold change” value was found to be 0.818. Take RRIRNRPPRLPRPRPRPAWTPRP: the “shrunken log2 fold change” value was determined as 0.182. In the case of RRIRPRPPRLPRPRPRPMLMPRP it was 0.459; in that of RRIRIRPPRLPRPRPRPRPQPRP, 0.321. For the sequence RRIRIRPPRLPRPRPRPLNTPRP, the “shrunken log2 fold change” value is -0.876. Turning to RRIRVRPPRLPRPRPRPWCTPRP, the “shrunken log2 fold change” value is 0.0234. Consider RRIRIRPPRLPRPRPRPDLCPRP, for which the “shrunken log2 fold change” value is -0.101.

On to RRIRERPPRLPRPRPRPLTSPRP, for which the “shrunken log2 fold change” value is -0.00875. For the sequence RRIRPRPPRLPRPRPRPFPLPRP, the “shrunken log2 fold change” value is -0.332. Take RRIRRRPPRLPRPRPRPCPRPRP: the “shrunken log2 fold change” value is 0.0796. Consider RRIRLRPPRLPRPRPRPGTFPRP, for which the “shrunken log2 fold change” value was determined as 0.0118. With RRIRDRPPRLPRPRPRPIHFPRP, the “shrunken log2 fold change” value is -0.0728.

In the case of RRIRDRPPRLPRPRPRPRKCPRP, the “shrunken log2 fold change” value is -0.0114.

For RRIRTRPPRLPRPRPRPMDFPRP, the “shrunken log2 fold change” value came to 0.0159. Regarding RRIRCRPPRLPRPRPRPATGPRP, the “shrunken log2 fold change” value is 0.201.

As for RRIRSRPPRLPRPRPRPQDPPRP, the “shrunken log2 fold change” value is 0.122.

For the sequence RRIRPRPPRLPRPRPRPSIKPRP, the “shrunken log2 fold change” value was -0.33. Regarding RRIRQRPPRLPRPRPRPAFLPRP, the “shrunken log2 fold change” value is -0.0387. Take RRIRMRPPRLPRPRPRPFIIPRP: the “shrunken log2 fold change” value was -0.268. The result for RRIRKRPPRLPRPRPRPYSWPRP reads 0.0046; that for RRIRERPPRLPRPRPRPRFYPRP, -0.115. As for RRIRVRPPRLPRPRPRPTAHPRP, the “shrunken log2 fold change” value worked out at 0.246. With RRIRLRPPRLPRPRPRPHMDPRP, the “shrunken log2 fold change” value is -0.549. For the sequence RRIRARPPRLPRPRPRPIVKPRP, the “shrunken log2 fold change” value is 0.0456. In the case of RRIRRRPPRLPRPRPRPLTMPRP, the “shrunken log2 fold change” value was 0.0632. As for RRIRVRPPRLPRPRPRPANNPRP, the “shrunken log2 fold change” value was -0.272. Consider RRIRQRPPRLPRPRPRPQDAPRP, for which the “shrunken log2 fold change” value is -0.253. RRIRMRPPRLPRPRPRPAVVPRP: the “shrunken log2 fold change” value is 0.287. RRIRLRPPRLPRPRPRPREYPRP: the “shrunken log2 fold change” value came to 0.289. Turning to RRIRMRPPRLPRPRPRPILIPRP, the “shrunken log2 fold change” value was 0.0587. For RRIRERPPRLPRPRPRPFGPPRP, the “shrunken log2 fold change” value is -0.146. Turning to RRIRCRPPRLPRPRPRPYCCPRP, the “shrunken log2 fold change” value is -0.135. In the case of RRIRRRPPRLPRPRPRPVVLPRP it was -0.0732; in that of RRIRWRPPRLPRPRPRPYLGPRP, -0.616. With RRIRHRPPRLPRPRPRPHLYPRP, the “shrunken log2 fold change” value is -0.24.

Consider RRIRMRPPRLPRPRPRPGHEPRP, for which the “shrunken log2 fold change” value was 0.086. The result for RRIRCRPPRLPRPRPRPAYSPRP reads -0.97; that for RRIRVRPPRLPRPRPRPRATPRP, 0.114.
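Note: peptides expressed intracellularly from a pBAD plasmid library in pooled LB shake-flask culture, induced with 0.3% L-arabinose, DNA abundance read by NGS, three biological replicates, DESeq2 with apeglm shrinkage.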
